The results in this text go back to PMC9715571 (Cell Research, 2022).

Data set [1] concerns the molecule itself. Description: crystal structure; WTAP 130-241 alone, 2.40 Å.
The target in another data set is T1, METTL14 (human, UniProt Q9HCE5 1-456).
T1 construct: METTL14, human; also called MTC core subunit; source: baculovirus-insect cell expression system, co-expressed, purified
T1 sequence (looked up): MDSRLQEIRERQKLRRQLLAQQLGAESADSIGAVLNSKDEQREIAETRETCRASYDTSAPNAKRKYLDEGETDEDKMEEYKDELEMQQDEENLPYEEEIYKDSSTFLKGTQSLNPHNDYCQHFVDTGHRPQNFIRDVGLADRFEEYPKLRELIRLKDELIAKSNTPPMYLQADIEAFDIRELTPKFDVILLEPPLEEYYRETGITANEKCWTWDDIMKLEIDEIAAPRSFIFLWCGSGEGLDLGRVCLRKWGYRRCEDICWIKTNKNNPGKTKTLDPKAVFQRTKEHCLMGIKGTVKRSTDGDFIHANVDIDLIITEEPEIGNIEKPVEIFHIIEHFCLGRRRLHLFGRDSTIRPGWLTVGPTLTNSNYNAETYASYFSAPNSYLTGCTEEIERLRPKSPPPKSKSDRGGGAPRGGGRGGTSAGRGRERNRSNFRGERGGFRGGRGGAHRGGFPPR
Description: SEC; gel filtration analysis of the purified, co-expressed METTL3–METTL14–WTAP 1-273–VIRMA 381-1486 complex. The settings on record: both partners purified.

The target of another data set is T2, METTL3 (human, UniProt Q86U44 1-580).
T2 construct: METTL3, human; The same molecule is used for the co-purifications, the gel filtration and the cross-linking; also called MTC core subunit; source: baculovirus-insect cell expression system, co-expressed, purified
Description: cross-linking; in vitro CXMS of the quaternary M–M–W–V complex with BS3, FDR < 5%. The settings on record: both partners purified.

For the next data set, the target named is T3, VIRMA^381–1486 (human, UniProt Q69YN4 381-1486).
T3 construct: probably the baculovirus-insect cell system used for the other complexes
T3 sequence (looked up): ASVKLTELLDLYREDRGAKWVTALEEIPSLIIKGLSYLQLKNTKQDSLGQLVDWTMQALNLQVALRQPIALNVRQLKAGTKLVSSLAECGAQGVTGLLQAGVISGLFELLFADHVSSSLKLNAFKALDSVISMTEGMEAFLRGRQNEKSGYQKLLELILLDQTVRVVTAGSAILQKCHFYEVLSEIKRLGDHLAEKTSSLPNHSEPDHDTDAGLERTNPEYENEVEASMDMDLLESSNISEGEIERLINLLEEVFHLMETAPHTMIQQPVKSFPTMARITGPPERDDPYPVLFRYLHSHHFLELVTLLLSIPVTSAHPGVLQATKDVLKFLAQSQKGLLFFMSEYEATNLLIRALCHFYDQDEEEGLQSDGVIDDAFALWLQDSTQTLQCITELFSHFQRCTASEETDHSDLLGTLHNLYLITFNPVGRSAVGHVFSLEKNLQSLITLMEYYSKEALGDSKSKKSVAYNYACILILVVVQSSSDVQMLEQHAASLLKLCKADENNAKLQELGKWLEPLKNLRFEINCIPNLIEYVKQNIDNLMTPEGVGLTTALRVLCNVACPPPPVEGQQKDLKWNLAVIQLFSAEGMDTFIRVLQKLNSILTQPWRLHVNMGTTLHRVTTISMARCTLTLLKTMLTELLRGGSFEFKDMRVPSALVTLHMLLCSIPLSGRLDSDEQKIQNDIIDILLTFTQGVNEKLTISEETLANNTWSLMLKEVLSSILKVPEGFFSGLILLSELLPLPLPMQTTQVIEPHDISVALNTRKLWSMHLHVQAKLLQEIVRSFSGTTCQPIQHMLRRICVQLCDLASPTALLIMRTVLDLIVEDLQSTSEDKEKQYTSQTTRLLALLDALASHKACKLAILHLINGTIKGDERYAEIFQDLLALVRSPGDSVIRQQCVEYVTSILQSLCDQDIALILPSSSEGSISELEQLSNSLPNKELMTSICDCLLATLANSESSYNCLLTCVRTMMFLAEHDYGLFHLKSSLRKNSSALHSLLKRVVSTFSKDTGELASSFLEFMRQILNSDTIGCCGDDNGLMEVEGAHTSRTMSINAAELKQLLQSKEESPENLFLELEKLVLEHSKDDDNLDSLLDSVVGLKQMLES
Description: cryo-EM structure; METTL3–METTL14–WTAP 1-273–VIRMA 381-1486 complex, gradient fixation, 3.1 Å; only WTAP 171-237 and VIRMA 381-1292 seen. Particulars: both partners purified.

Data set [2] deals with the molecule itself. The data set is described as above.

T2 sequence (Q86U44 whole entry): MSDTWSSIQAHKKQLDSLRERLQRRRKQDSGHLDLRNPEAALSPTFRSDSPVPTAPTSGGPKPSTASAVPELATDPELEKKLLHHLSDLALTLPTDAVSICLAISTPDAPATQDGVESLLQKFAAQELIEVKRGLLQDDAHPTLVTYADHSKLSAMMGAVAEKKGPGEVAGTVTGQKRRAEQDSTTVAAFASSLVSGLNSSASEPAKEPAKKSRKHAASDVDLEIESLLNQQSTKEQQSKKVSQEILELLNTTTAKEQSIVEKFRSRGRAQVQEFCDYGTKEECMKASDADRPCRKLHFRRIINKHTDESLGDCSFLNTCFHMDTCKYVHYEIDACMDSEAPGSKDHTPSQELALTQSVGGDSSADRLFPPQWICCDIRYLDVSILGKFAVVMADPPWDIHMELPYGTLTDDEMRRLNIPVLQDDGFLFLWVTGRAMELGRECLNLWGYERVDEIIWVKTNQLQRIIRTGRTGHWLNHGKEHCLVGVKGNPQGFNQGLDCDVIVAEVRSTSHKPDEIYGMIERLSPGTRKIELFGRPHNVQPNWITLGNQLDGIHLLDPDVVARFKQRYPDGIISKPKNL

B1: WTAP^130–241 (domain or fragment, human, UniProt Q15007 130-241, looked up)
chain: QTKDKLEQAQNELSAWKFTPDSQTGKKLMAKCRMLIQENQELGRQLSQGRIAQLEAELALQKKYSEELKSSQDELNDFIIQLDEEVEGMQSTILVLQQQLKETRQQLAQYQQ
notes: WTAP, human, residues 130-241; density assigned for residues 150-241; also called WTAP alone; WTAP^150–241 (assigned density); source: Escherichia coli expression system
On to B1, for which the “stoichiometry N” value in data set [1] was found to be 2.

B2: WTAP^1–273 (domain or fragment, human, UniProt Q15007 1-273, looked up)
chain: MTNEEPLPKKVRLSETDFKVMARDELILRWKQYEAYVQALEGKYTDLNSNDVTGLRESEEKLKQQQQESARRENILVMRLATKEQEMQECTTQIQYLKQVQQPSVAQLRSTMVDPAINLFFLKMKGELEQTKDKLEQAQNELSAWKFTPDSQTGKKLMAKCRMLIQENQELGRQLSQGRIAQLEAELALQKKYSEELKSSQDELNDFIIQLDEEVEGMQSTILVLQQQLKETRQQLAQYQQQQSQASAPSTSRTTASEPVEQSEATSKDCSRL
notes: probably the baculovirus-insect cell system used for the other complexes; also called WTAPA; WTAPB
As to B2, the binding result in the data set with METTL14 and in the data set with METTL3 was “binds” in each case. In addition, the figures for the “stoichiometry N” value (in the data set with VIRMA^381–1486; in data set [2]) were 2 WTAP:VIRMA and 2, respectively.

One may read the stoichiometry N as a count of units in the complex or per binding partner.
